Measured values as given in patent CN114316057A (SHENZHEN PEOPLE HOSPITAL, dated 2022).

Legend:
[1] = molecular target: T1, TOM20-Human 胞质结构域蛋白(25-145) (human, UniProt Q15388 25-145); assay: SPR (Biacore), antigen immobilised on chip, nanobody as analyte
T1 construct: range 25-145; A purification tag (Ni column) is implied but not described; also called TOM20胞质结构域
T1 sequence (looked up): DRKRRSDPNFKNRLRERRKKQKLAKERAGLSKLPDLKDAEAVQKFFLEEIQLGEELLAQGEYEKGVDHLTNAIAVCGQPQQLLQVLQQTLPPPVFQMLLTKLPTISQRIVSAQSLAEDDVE

TOM20-Mouse 胞质结构域 = molecular target: T2, TOM20-Mouse 胞质结构域 (mouse, UniProt Q9DCC8 25-145); assay: as above
T2 construct: domain: 胞质结构域; also called TOM20(鼠)胞质结构域
T2 sequence (looked up): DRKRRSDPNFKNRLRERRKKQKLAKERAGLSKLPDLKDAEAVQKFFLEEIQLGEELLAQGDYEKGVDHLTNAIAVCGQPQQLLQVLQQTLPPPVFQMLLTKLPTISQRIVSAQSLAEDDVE

[2] = molecular target: T1, TOM20-Human 胞质结构域蛋白(25-145); assay: phage clone ELISA, crude phage nanobody extract on coated TOM20 against BSA control

- Kd [1]: 44.8 nM
- Kd (TOM20-Mouse 胞质结构域): 413 nM
- TOM20/BSA ratio [2]: ~3 fold
B1: P2B7号纳米抗体 (VHH)
VHH: AVQLVESGGGLVQAGGSLRLSCVASGSTFSNFVMGWYRQAPGKQRVLVATISSGGSTNYADSVKGRFTISRDNTKNTVYLQMNSLKPEDTSVYYCNARRGSVIVPTLAYDYWGQGTQVTVSS
notes: Alpaca naive-library nanobody expressed in E. coli with an HA tag for detection and purified on Ni resin; also called P2B7纳米抗体; TOM20纳米抗体; not shown: fused HA tag and vector-derived His tag (PET-14B or PET28a-sumo)
